One protein from publication doi:10.1101/2025.02.09.637349 (bioRxiv, 2025) can be followed below.

The series concerns the molecule itself. Kind of series: cryo-EM structure.

B1: Thermochromatium tepidum form-IAq RuBisCO large subunit (RbcL) (natural protein, UniProt A0A6I6DX30 1-472, looked up)
chain: MAKTYSAGVKEYRETYWMPNYTPKDTDILACFKITPQPGVPREEAAAAVAAESSTGTWTTVWTDLLTDLDYYKGRAYAIEDVPGDDTCFYAFIAYPIDLFEEGSVVNVFTSLVGNVFGFKAVRALRLEDVRFPIAYVMTCNGPPHGIQVERDILNKYGRPLLGCTIKPKLGLSAKNYGRAVYECLRGGLDFTKDDENVNSQPFMRWRQRFDFVMEAIDKAERETGERKGHYLNVTAPTPEEMYKRAEYAKEIGAPIIMHDYITGGFCANTGLAQWCRNNGVLLHIHRAMHAVLDRNPHHGIHFRVLTKILRLSGGDHLHTGTVVGKLEGDRQATLGWIDLLRESYVKEDRSRGIFFDQDWGAMPGAFAVASGGIHVWHMPALVTIFGDDSVLQFGGGTLGHPWGNAAGACANRVALEACIEARNQGIPIEKEGKEVLTKAAAHSPELKIAMETWKEIKFEFDSVDKLDVAHK
One may read the stoichiometry N as a count of units in the complex or per binding partner. With B1, the “stoichiometry N” value was determined as 8.
